From patent US20110318347A1

What was measured:
human CXCR4 (human) [1] = test: competition vs [125I]-238D4 (3 nM), membranes of HEK293T cells expressing CXCR4
human CXCR4 (human) [2] = test: competition vs [125I]-CXCL12 (40 pM), membranes of HEK293T cells expressing CXCR4
human CXCR4 (human) [3] = test: competition vs [125I]-238D2 (3 nM), membranes of HEK293T cells expressing CXCR4
human CXCR4 (human) [4] = biological target: human CXCR4 (human)
human CXCR4 (human) [5] = test: cell-based or functional assay
human CXCR4 (human) [6] = test: competition with [125I]-CXCL12 on HEK293T-CXCR4 membranes
human CXCR4 (human) [7] = test: competition with [125I]-238D4 on HEK293T-CXCR4 membranes
human CXCR4 (human) [8] = test: periplasmic fraction (1:10), displacement of [125I]-CXCL12, HEK293T-CXCR4 membranes; - = 0-29%, + = 30-69%, ++ = 70-100%
human CXCR4 (human) [9] = test: competition with [125I]-238D2 on HEK293T-CXCR4 membranes

Chain of Nanobody 238D2 (VHH) (VHH): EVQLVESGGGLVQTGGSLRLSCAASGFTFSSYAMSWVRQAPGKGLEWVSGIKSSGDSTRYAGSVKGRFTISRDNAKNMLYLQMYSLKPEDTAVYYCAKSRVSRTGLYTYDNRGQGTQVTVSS

For monoclonal antibody 12G5, the Displacem. (%) (human CXCR4 (human) [1]) was 90%, the pKi (human CXCR4 (human) [1]) was 9.31 and the Displacem. (%) (human CXCR4 (human) [2]) was 54%. It also gave a pKi (human CXCR4 (human) [2]) of 9.19, a Displacem. (%) (human CXCR4 (human) [3]) of 89% and a pKi (human CXCR4 (human) [3]) of 9.65.

With Nanobody 238D2 (VHH) the pKi (human CXCR4 (human) [1]) was 8.23, the IC50 (read off the curve), migration of Jurkat cells towards 0.3 nM CXCL12 (human CXCR4 (human) [4]) was 0.008 µM and the Anti-HIV-1 activity (in nM), MT-4/HE (human CXCR4 (human) [5]) was 26.7 nM. For the same substance, the Anti-HIV-1 activity (in nM), MT-4/NL4.3 (human CXCR4 (human) [5]) was 30.7 nM, the Anti-HIV-1 activity (in nM), PBMC/HE (human CXCR4 (human) [5]) was 44.7 nM and the Anti-HIV-1 activity (in nM), PBMC/NL4.3 (human CXCR4 (human) [5]) was 30.9 nM. It also gave an Anti-HIV-1 activity (in nM), U87.CD4.CXCR4/NL4.3 (human CXCR4 (human) [5]) of 44.7 nM, a CRE activation, HEK293T-CXCR4-CREbgal/0.01-100 nM CXCL12, Imax (%) (human CXCR4 (human) [5]) of 104% and a Chemotaxis, Jurkat/0.3 nM CXCL12, Imax (%) (human CXCR4 (human) [5]) of 106%. It also gave an IC50, HIV-1 NL4.3, MT-4 cells, exp. 1 (human CXCR4 (human) [5]) of 0.701 µg/mL, an IC50, HIV-1 NL4.3, PBMC donor 1 (human CXCR4 (human) [5]) of 0.468 µg/mL and an IC50, HIV-1 NL4.3, PBMC donor 2 (human CXCR4 (human) [5]) of 0.307 µg/mL. For the same substance, the IC50, HIV-1 UG270, PBMC donor 1 (human CXCR4 (human) [5]) was 0.492 µg/mL, the IC50, HIV-1 UG270, PBMC donor 2 (human CXCR4 (human) [5]) was 0.447 µg/mL and the IC90, HIV-1 NL4.3, MT-4 cells, exp. 1 (human CXCR4 (human) [5]) was 0.849 µg/mL. For the same substance, the IC90, HIV-1 NL4.3, PBMC donor 1 (human CXCR4 (human) [5]) was greater than 1 µg/mL, the IC90, HIV-1 NL4.3, PBMC donor 2 (human CXCR4 (human) [5]) was greater than 1 µg/mL and the IC90, HIV-1 UG270, PBMC donor 1 (human CXCR4 (human) [5]) was greater than 1 µg/mL. It also gave an IC90, HIV-1 UG270, PBMC donor 2 (human CXCR4 (human) [5]) of 0.851 µg/mL, an IP accumulation, HEK293T-CXCR4-Gαqi5/30 nM CXCL12, Imax (%) (human CXCR4 (human) [5]) of 86% and a nM IC50, HIV-1 NL4.3, PBMC donor 1 (human CXCR4 (human) [5]) of 31.2 nM. The nM IC50, HIV-1 NL4.3, PBMC donor 2 (human CXCR4 (human) [5]) was 20.5 nM, the nM IC50, HIV-1 UG270, PBMC donor 1 (human CXCR4 (human) [5]) was 32.8 nM and the nM IC50, HIV-1 UG270, PBMC donor 2 (human CXCR4 (human) [5]) was 29.8 nM. For the same substance, the IC50 (read off the curve) (human CXCR4 (human) [6]) was 0.02 µM, the Displacem. (%) (human CXCR4 (human) [2]) was 93% and the pKi (human CXCR4 (human) [2]) was 8.01. The IC50 (read off the curve) (human CXCR4 (human) [7]) was 0.004 µM, the percent inhibition of specific [125I]-CXCL12 binding (human CXCR4 (human) [8]) was 70 to 100% and the IC50 (read off the curve) (human CXCR4 (human) [9]) was 0.006 µM. It also gave a Displacem. (%) (human CXCR4 (human) [3]) of 97% and a pKi (human CXCR4 (human) [3]) of 8.41.
